Biological target: T1, rOmpR (OmpR-6xHis) (Klebsiella pneumoniae ATCC43816?) (UniProt A6TF28)
T1 sequence: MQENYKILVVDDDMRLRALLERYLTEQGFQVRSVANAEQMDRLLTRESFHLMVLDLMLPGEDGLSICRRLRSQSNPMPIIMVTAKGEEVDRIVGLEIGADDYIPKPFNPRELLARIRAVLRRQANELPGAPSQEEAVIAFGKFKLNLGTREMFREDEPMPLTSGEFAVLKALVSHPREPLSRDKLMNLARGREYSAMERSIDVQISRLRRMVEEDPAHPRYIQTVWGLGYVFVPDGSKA
Test: EMSA

With “ACAGAACGCTGAAATGCACGGAAAGTTGTCCGTTGGAAAATAATTAAACATTTATTCACTATTTTGCTACTTATTGTTTGAAATCACGGGGCGTCACCGTATAATTTGTCCGCTTTTTGATGCTTGACTCTTCGTCTTAAAGGACGTTTTATACGACACGCGACATACCTCAAAGGGAGCAGG (double strand) [Patp2]” the binding was “no binding”.

Reference: paper PMC10269446
